Data from the supplement of paper PMC7877785.
± gives the uncertainty stated by the source.

Assay: self-splicing fitness, log relative to wild type (ln ratio); higher = more splicing; Tetrahymena group I intron in knt gene, E. coli kanamycin selection, DiMSum; sequences stand for … in CUCUCU…GGAGGGAAAAGUUAUCAGGCAUGCACCUGGUAGCUAGUCUUUAAACCAAUAGAUUGCAUCGGUUUAAAAGGCAAGACCGUCAAAUUGCGGGAAAGGGGUCAACAGCCGUUCAGUACCAAGUCUCAGGGGAAACUUUGAGAUGGCCUUGCAAAGGGUAUGGUAAUAAGCUGACGGACAUGGUCCUAACCACGCAGCCAAGUCCUAAGUCAACAGAUCUUCUGUUGAUAUGGAUGCAGUUCACAGACUAAAUGUCGGUCGGGGAAGAUGUAUUCUUCUCAUAAGAUAUAGUCGGACCUCUCCUUAAUGGGAGCUAGCGGAUGAAGUGAUGCAACACUGGAGCCGCUGGGAACUAAUUUGUAUGCGAAAGUAUAUUGAUUAGUUUUGGAGUACUCGUGGUCG
How it was run: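 A randomised library covering all eight P1ex-region intron nucleotides was built with the intron in the knt kanamycin-resistance gene on pET-22b(+) and held in E. coli BL21(DE3). Cells were grown overnight at 37°C or 30°C on LB agar, with or without 25 μg/mL kanamycin, plus 100 μg/mL carbenicillin, 50 μM IPTG and 0.2% rhamnose, and pooled colonies were amplicon-sequenced on an Illumina HiSeq 2500. DiMSum fitness is the error-weighted combination of wild-type-normalised replicate fold changes, kanamycin versus none.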

Sequence	self-splicing fitness (ln) (30 °C)	self-splicing fitness (ln) (37 °C)
UGCAAGCAAUAUUACGCAUC	-1.87 ± 0.45	-1.52 ± 0.45
UGCAAGCAAUAUUACGCUAG	-2.55 ± 0.27	-2.42 ± 0.33
UGCAAGCAAUAUUACGCUCG	-3.78 ± 0.27	-1.83 ± 0.2
UGCAAGCAAUAUUACGGAAC		-0.851 ± 0.25
UGCAAGCAAUAUUACGGGAG	-2.41 ± 0.096	-1.71 ± 0.098
UGCAAGCAAUAUUACGGUAU	-3.81 ± 0.21	-1.15 ± 0.14
UGCAAGCAAUAUUACGGUUA	0.147 ± 0.075	0.11 ± 0.078
UGCAAGCAAUAUUACGUAUA	-2.49 ± 0.18	-0.379 ± 0.12
UGCAAGCAAUAUUACGUCCG	0.463 ± 0.1	0.55 ± 0.12
UGCAAGCAAUAUUACGUGGA	-2.88 ± 0.17	-1.36 ± 0.11
UGCAAGCAAUAUUACGUGGU	-4.13 ± 0.17	-2.84 ± 0.16
UGCAAGCAAUAUUACGUUCA	0.123 ± 0.06	0.454 ± 0.088
UGCAAGCAAUAUUACGUUCU	-0.995 ± 0.069	-0.423 ± 0.084
UGCCAGCAAUAUUACGAAUA	-2.53 ± 0.16	-0.828 ± 0.12
UGCCAGCAAUAUUACGACAA	-1.19 ± 0.17	0.212 ± 0.13
UGCCAGCAAUAUUACGACGU	-1.75 ± 0.14	-1.26 ± 0.14
UGCCAGCAAUAUUACGCAUG	-1.28 ± 0.085	-1.43 ± 0.13
UGCCAGCAAUAUUACGCUAC	-3.47 ± 0.16	-2.78 ± 0.2
UGCCAGCAAUAUUACGCUUC	-3.19 ± 0.23	-1.86 ± 0.22
UGCCAGCAAUAUUACGGACU	-0.709 ± 0.075	0.139 ± 0.089
UGCCAGCAAUAUUACGGCUA	0.121 ± 0.12	0.121 ± 0.12
UGCCAGCAAUAUUACGGGCU	-2.6 ± 0.19	-1.61 ± 0.18

Sequence	self-splicing fitness (ln) (30 °C)	self-splicing fitness (ln) (37 °C)
UGCCAGCAAUAUUACGGUAG	-1.89 ± 0.12	-0.428 ± 0.11
UGCCAGCAAUAUUACGUAUU	-2.8 ± 0.13	-2.56 ± 0.16
UGCCAGCAAUAUUACGUCAU	-3 ± 0.16	-2.38 ± 0.18
UGCCAGCAAUAUUACGUUGA	-2.21 ± 0.074	-1.26 ± 0.082
UGCCAGCAAUAUUACGUUGC	-2.93 ± 0.17	-2.93 ± 0.18
UGCGAGCAAUAUUACGACAC	-2.71 ± 0.3	0.803 ± 0.27
UGCGAGCAAUAUUACGACGC	-3.46 ± 0.25	
UGCGAGCAAUAUUACGACUA	-1.26 ± 0.23	-1.09 ± 0.28
UGCGAGCAAUAUUACGAGCC		-1.67 ± 0.43
UGCGAGCAAUAUUACGAGUA	-0.846 ± 0.14	-1.84 ± 0.2
UGCGAGCAAUAUUACGAUAG	-3.32 ± 0.27	-1.7 ± 0.38
UGCGAGCAAUAUUACGAUGA	-2.13 ± 0.16	-1.4 ± 0.13
UGCGAGCAAUAUUACGCACG	-2.22 ± 0.28	-1.98 ± 0.36
UGCGAGCAAUAUUACGCCGC	-3.34 ± 0.36	-1.3 ± 0.43
UGCGAGCAAUAUUACGCUAA	-1.92 ± 0.21	-2.48 ± 0.26
UGCGAGCAAUAUUACGGCCG	-1 ± 0.38	
UGCGAGCAAUAUUACGGCGU	-2.58 ± 0.18	-0.48 ± 0.2
UGCGAGCAAUAUUACGGGAG	-4.04 ± 0.19	-2.61 ± 0.17
UGCGAGCAAUAUUACGGUUU	-3.14 ± 0.3	-2.62 ± 0.34
UGCGAGCAAUAUUACGUACG	-3.12 ± 0.21	-2.49 ± 0.22
UGCGAGCAAUAUUACGUAUC	-1.76 ± 0.16	-2.37 ± 0.34
